# From article PMC4436829
# pKd: −log10 of the molar value. Where two headings read alike, the source gives them in different places.
# How the values were obtained:
# [1] = target: S8,15,44,55D NDC80 "Bonsai"-GFP complex; test: FRAP
# [2] = target: Taxol-stabilized microtubules (polymerized cow brain tubulin) (cow) (UniProt Q2HJ86); test: FRAP
# [3] = target: S8,15,44,55D NDC80 "Bonsai"-GFP complex; test: TIRF-based MT-binding assay
# [4] = target: Taxol-stabilized microtubules (polymerized cow brain tubulin) (cow) (UniProt Q2HJ86); test: TIRF-based MT-binding assay
# [5] = target: S15D NDC80 "Bonsai"-GFP complex; test: TIRF-based MT-binding assay
# [6] = target: S15D NDC80 "Bonsai"-GFP complex; test: TIRF-based MT-binding assay; remark: listed apart in the source
# [7] = target: noD NDC80 "Bonsai"-GFP complex (wild-type Hec1 tail); test: FRAP
# [8] = target: noD NDC80 "Bonsai"-GFP complex (wild-type Hec1 tail); test: TIRF-based MT-binding assay
# [9] = target: Taxol-stabilized microtubules (polymerized cow brain tubulin) (cow) (UniProt Q2HJ86); test: single-molecule TIRF microscopy
# Chain of UniProt Q2HJ86 (Q2HJ86 8-447, chain 1 of 2): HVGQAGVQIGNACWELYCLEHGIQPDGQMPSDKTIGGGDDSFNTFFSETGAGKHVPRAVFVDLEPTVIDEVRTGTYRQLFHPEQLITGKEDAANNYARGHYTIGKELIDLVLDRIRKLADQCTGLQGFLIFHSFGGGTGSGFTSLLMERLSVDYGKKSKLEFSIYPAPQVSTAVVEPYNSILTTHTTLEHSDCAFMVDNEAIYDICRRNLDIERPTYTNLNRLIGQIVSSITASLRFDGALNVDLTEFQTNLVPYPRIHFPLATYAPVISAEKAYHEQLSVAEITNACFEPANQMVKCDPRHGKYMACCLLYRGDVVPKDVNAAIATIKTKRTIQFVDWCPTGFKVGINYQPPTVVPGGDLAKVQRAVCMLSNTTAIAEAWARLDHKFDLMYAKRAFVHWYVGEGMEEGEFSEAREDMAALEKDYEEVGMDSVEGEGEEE
# Chain of UniProt Q2HJ86 (Q6B856 1-439, chain 2 of 2, further chain): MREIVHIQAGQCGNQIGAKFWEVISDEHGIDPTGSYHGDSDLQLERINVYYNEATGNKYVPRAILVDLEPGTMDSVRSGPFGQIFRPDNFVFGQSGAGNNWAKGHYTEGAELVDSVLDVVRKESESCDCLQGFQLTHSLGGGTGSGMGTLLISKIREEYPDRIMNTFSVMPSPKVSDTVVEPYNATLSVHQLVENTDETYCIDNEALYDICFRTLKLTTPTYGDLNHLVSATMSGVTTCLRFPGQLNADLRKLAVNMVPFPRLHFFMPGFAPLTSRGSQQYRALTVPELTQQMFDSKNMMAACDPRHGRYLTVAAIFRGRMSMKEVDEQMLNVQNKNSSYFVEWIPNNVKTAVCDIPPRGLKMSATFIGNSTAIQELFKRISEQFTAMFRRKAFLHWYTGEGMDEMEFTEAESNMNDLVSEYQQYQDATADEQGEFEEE
cooperativity parameter (ω) [1],FRAP recovery time [2],cooperativity parameter (ω) [3],pKd [4],stoichiometry N (molecules per tubulin dimer) [4],cooperativity parameter (ω) [5],cooperativity parameter (ω) [6],cooperativity parameter (ω) [7],cooperativity parameter (ω) [8],pKd [9],residency time (τ = 1/koff) [9],Substance
2.4,0.084 s,2.6,5.72,1.9,–,–,–,–,–,–,"S8,15,44,55D NDC80 ""Bonsai""-GFP complex"
–,–,–,6.15,1.9,2,3,–,–,–,–,"S15D NDC80 ""Bonsai""-GFP complex"
–,0.29 s,–,6.28,1.9,–,–,2,3.33,6.19,417 ms,"noD NDC80 ""Bonsai""-GFP complex (wild-type Hec1 tail)"
